Data published in the supplement of paper PMC10126150.
± gives the standard deviation of the averaged measurements.

Tested on: ATP
Assay: switch fluorescence ratio, 500 uM ATP over buffer (Cy3 cluster intensity, sum of 5 cycles each) (fold (ratio)); higher = stronger signal-on switching upon ATP binding; sequences stand for … in TCGTCGGCAGCGTCAGATGTGTATAAGAGACAGTTTTTTTTTTTTTTTTTTTTTTTTT…TC
Settings: aptamer strand: ATP DNA aptamer (quencher-CACCTGGGGGAGTATTGCGGAGGAAGG + anchor), 100 nM annealed; ATP concentration: 500 uM
In short: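 For every switch-domain sequence, the fluorescence ratio is the mean of per-cluster values, each being summed target-cycle Cy3 intensity over summed buffer-cycle Cy3 intensity. Clusters outside 100-1000 RFU were excluded. On a modified Illumina MiSeq flow-cell, the Cy3-labelled switching-strand clusters were annealed to 100 nM quencher-labelled ATP aptamer, imaged in selection buffer and then after 15 min with 500 uM ATP at 22 °C. Five such cycles were run, with NaOH stripping and re-annealing between them.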
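Also: ATP exposure 15 min at 22 °C before imaging.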

| Sequence | switch fluorescence ratio |
| --- | --- |
| ATTTGGGCTC | 0.98 ± 0.029 |
| ATTTGGGGAA | 0.976 ± 0.021 |
| ATTTGGGGTA | 1.01 ± 0.024 |
| ATTTGGGGTG | 1.016 ± 0.0069 |
| ATTTGGGT | 0.999 ± 0.021 |
| ATTTGGTACC | 0.977 ± 0.043 |
| ATTTGGTATT | 0.992 ± 0.041 |
| ATTTGGTTGT | 0.958 ± 0.021 |
| ATTTGTCCGG | 1.007 ± 0.0081 |
| ATTTGTTGGA | 0.989 ± 0.04 |
| ATTTTAAAAT | 0.977 ± 0.013 |
| ATTTTAAACG | 0.979 ± 0.021 |
| ATTTTAAATT | 1 ± 0.019 |
| ATTTTAAGAG | 1.01 ± 0.02 |
| ATTTTAATTT | 1.01 ± 0.015 |
| ATTTTAGGTC | 0.989 ± 0.025 |
| ATTTTAGT | 1.01 ± 0.038 |
| ATTTTATGCG | 0.985 ± 0.023 |
| ATTTTCAATG | 1 ± 0.018 |
| ATTTTCGACA | 1.022 ± 0.0028 |
| ATTTTCGGGT | 0.9766 ± 0.0023 |
| ATTTTCTGTA | 1.0017 ± 0.00088 |
| ATTTTGAATG | 0.979 ± 0.05 |

| Sequence | switch fluorescence ratio |
| --- | --- |
| ATTTTGCAGG | 0.997 ± 0.046 |
| ATTTTGCCTT | 1 ± 0.015 |
| ATTTTGGATG | 0.996 ± 0.025 |
| ATTTTGGGGG | 0.988 ± 0.021 |
| ATTTTGGTCG | 0.982 ± 0.082 |
| ATTTTGTATT | 0.99 ± 0.034 |
| ATTTTGTGGT | 1.01 ± 0.011 |
| ATTTTTAGAG | 1.01 ± 0.023 |
| ATTTTTATAA | 0.987 ± 0.025 |
| ATTTTTCTCA | 1.04 ± 0.062 |
| ATTTTTGAAG | 1.02 ± 0.044 |
| ATTTTTGAAT | 1.01 ± 0.029 |
| ATTTTTGGC | 1.03 ± 0.06 |
| ATTTTTGGGG | 1.006 ± 0.0088 |
| ATTTTTGTTG | 0.9883 ± 0.008 |
| ATTTTTTAGA | 0.989 ± 0.021 |
| ATTTTTTATT | 0.9923 ± 0.0097 |
| ATTTTTTTTA | 0.974 ± 0.024 |
| CAAAAACGTT | 1.02 ± 0.024 |
| CAAAAAGGAG | 0.994 ± 0.019 |
| CAAAACGGGG | 1.15 ± 0.18 |
| CAAAAGATGT | 1.01 ± 0.05 |
| CAAAAGCGAG | 1.014 ± 0.0055 |

| Sequence | switch fluorescence ratio |
| --- | --- |
| CAAAAGGAGT | 0.992 ± 0.034 |
| CAAAAGGGGG | 0.9818 ± 0.005 |
| CAAAAGTGGG | 0.9928 ± 0.0018 |
| CAAAATTGCC | 0.954 ± 0.11 |
| CAAAGAAAGA | 0.991 ± 0.032 |
| CAAAGAAAGG | 0.95 ± 0.021 |
| CAAAGAGGAT | 0.991 ± 0.022 |
| CAAAGCGCGG | 0.997 ± 0.055 |
| CAAAGGAGGT | 1.03 ± 0.096 |
| CAAAGGATGA | 0.988 ± 0.002 |
| CAAATAAGTG | 0.9842 ± 0.0088 |
| CAAATAAGTT | 1.02 ± 0.029 |
| CAAATAATGA | 0.9642 ± 0.0036 |
| CAAATAGCTA | 1.0363 ± 0.00014 |
| CAAATCGTTT | 0.985 ± 0.038 |
| CAAATGAAGT | 1.02 ± 0.018 |
| CAAATGGTTT | 1.05 ± 0.08 |
| CAAATGTAGC | 1.017 ± 0.0081 |
| CAAATGTTGG | 0.983 ± 0.026 |
| CAAATTAGGA | 0.9764 ± 0.0073 |
| CAAATTCTGT | 1.009 ± 0.009 |
| CAAATTGCTT | 1.01 ± 0.038 |
| CAAATTTGGC | 0.986 ± 0.027 |

| Sequence | switch fluorescence ratio |
| --- | --- |
| CAACAACGCG | 0.992 ± 0.02 |
| CAACAGTTTT | 1 ± 0.012 |
| CAACCGTTTC | 1.27 ± 0.028 |
| CAACGGGGCG | 0.999 ± 0.028 |
| CAACGGGTTA | 0.998 ± 0.0077 |
| CAACTACGGC | 1.09 ± 0.05 |
| CAACTTTACC | 1.16 ± 0.027 |
| CAAGAAAGTG | 0.9875 ± 0.0071 |
| CAAGACACGT | 0.977 ± 0.032 |
| CAAGAGGGGG | 0.978 ± 0.043 |
| CAAGAGTGGG | 1.01 ± 0.032 |
| CAAGATCTGT | 0.9925 ± 0.0031 |
| CAAGATTGTT | 1.02 ± 0.017 |
| CAAGCCAGTT | 0.9985 ± 0.0043 |
| CAAGCGTTTC | 1.06 ± 0.024 |
| CAAGCTTGGG | 1 ± 0.034 |
| CAAGGAATGG | 0.995 ± 0.035 |
| CAAGGACGAT | 1.004 ± 0.0015 |
| CAAGGCATTC | 1.32 ± 0.059 |
| CAAGGGGGG | 0.977 ± 0.043 |
| CAAGGGGTT | 1.02 ± 0.068 |
| CAAGGTAAAG | 0.992 ± 0.013 |
| CAAGGTCGTA | 1 ± 0.029 |

| Sequence | switch fluorescence ratio |
| --- | --- |
| CAAGTAAGCG | 1.003 ± 0.0011 |
| CAAGTACATG | 1.2 ± 0.014 |
| CAAGTAGGTC | 0.98 ± 0.061 |
| CAAGTGGTTG | 0.984 ± 0.025 |
| CAAGTGTACG | 1.01 ± 0.042 |
| CAAGTTCTGC | 0.97 ± 0.053 |
| CAAGTTGGCG | 0.995 ± 0.099 |
| CAAGTTTGC | 1.08 ± 0.017 |
| CAATAAGTTT | 1.01 ± 0.043 |
| CAATACATAT | 1.07 ± 0.023 |
| CAATAGCTAT | 1.06 ± 0.022 |
| CAATAGTGTG | 0.973 ± 0.017 |
| CAATAGTTGT | 0.996 ± 0.029 |
| CAATATATCA | 0.999 ± 0.022 |
| CAATATTAGA | 1.02 ± 0.07 |
| CAATATTTGC | 0.975 ± 0.035 |
| CAATCCATTG | 0.994 ± 0.024 |
| CAATCCTTTT | 1.01 ± 0.018 |
| CAATCTGATA | 0.99 ± 0.016 |
| CAATCTGTTA | 0.989 ± 0.027 |
| CAATGAGCCT | 1.04 ± 0.013 |
| CAATGAGCTT | 0.9907 ± 0.0087 |
| CAATGAGGAA | 1.02 ± 0.018 |

| Sequence | switch fluorescence ratio |
| --- | --- |
| CAATGATAGG | 0.992 ± 0.017 |
| CAATGATCTT | 1.02 ± 0.014 |
| CAATGATGCT | 0.935 ± 0.018 |
| CAATGATGGG | 1.0072 ± 0.00052 |
| CAATGCCGAG | 0.9895 ± 0.0045 |
| CAATGGAAGA | 0.989 ± 0.014 |
| CAATGGCGTA | 1.013 ± 0.00084 |
| CAATGGGCGA | 0.993 ± 0.011 |
| CAATGGGCTC | 1.016 ± 0.0084 |
| CAATGGGGCT | 1.02 ± 0.038 |
| CAATGGTAGT | 0.9749 ± 0.0024 |
| CAATGTAAGA | 0.989 ± 0.012 |
| CAATTAAACC | 1.05 ± 0.028 |
| CAATTACTAG | 1.01 ± 0.029 |
| CAATTGGGGG | 0.9968 ± 0.0078 |
| CAATTTCTGG | 0.973 ± 0.015 |
| CAATTTTGCT | 0.98 ± 0.019 |
| CAATTTTTAG | 1.01 ± 0.023 |
| CAATTTTTCA | 1 ± 0.069 |
| CACAAGGGCA | 1.028 ± 0.0061 |
| CACAATATCT | 1.124 ± 0.0037 |
| CACACCGGCA | 1.093 ± 0.0043 |
| CACACTCGCT | 1.01 ± 0.024 |

| Sequence | switch fluorescence ratio |
| --- | --- |
| CACAGTAAAC | 1.25 ± 0.11 |
| CACATAAAAG | 0.987 ± 0.027 |
| CACATCACTT | 1.43 ± 0.27 |
| CACCAGGGCA | 1.54 ± 0.066 |
| CACCCGTGCT | 1.09 ± 0.016 |
| CACCGGAGGG | 1.25 ± 0.4 |
| CACCTAAAAT | 1.03 ± 0.037 |
| CACCTCATAA | 1.06 ± 0.011 |
| CACCTCGGAC | 1.139 ± 0.0092 |
| CACCTCTTAC | 1.271 ± 0.0029 |
| CACCTGCCCC | 1.347 ± 0.011 |
| CACCTTTACA | 1.16 ± 0.034 |
| CACGAAAGGA | 1.07 ± 0.033 |
| CACGAGCGTT | 1.011 ± 0.0049 |
| CACGAGGGAG | 0.982 ± 0.022 |
| CACGATTACT | 1.281 ± 0.0018 |
| CACGCCTTAT | 1.034 ± 0.0043 |
| CACGGAAGGA | 1.065 ± 0.0079 |
| CACGGACCTA | 1.363 ± 0.012 |
